Our source for the Ki values is US20210139548A1 (published 2021).

A word on the Ki: it is a measure of affinity in units of concentration, obtained from inhibition or displacement.

*1 amine or outer side, *2 acyl side, *3 side chain or, on linkers, in order; H or OH if unused. Side-chain parts run from the residue outwards. The star is where a group is joined. C18 diacid = O=C(O)CCCCCCCCCCCCCCCCC(=O)*; γGlu = O=C(O)[C@H](CCC(=O)[*:2])N[*:1]; Isovaleryl = CC(C)CC(=O)*; AEEA = NCCOCCOCC(=O)O

The labels stand for the following.
B1: Compound 1 (peptide)
peptide: Isovaleryl-APEK([AEEA-AEEA-γGlu-C18 diacid])PEEDAQPEELQEYYVSLRHYYNWLTRQRY-NH2
SMILES: CC(C)CC(=O)N[C@@H](C)C(=O)N1CCC[C@H]1C(=O)N[C@@H](CCC(=O)O)C(=O)N[C@@H](CCCCNC(=O)COCCOCCNC(=O)COCCOCCNC(=O)CC[C@H](NC(=O)CCCCCCCCCCCCCCCCC(=O)O)C(=O)O)C(=O)N1CCC[C@H]1C(=O)N[C@@H](CCC(=O)O)C(=O)N[C@@H](CCC(=O)O)C(=O)N[C@@H](CC(=O)O)C(=O)N[C@@H](C)C(=O)N[C@@H](CCC(N)=O)C(=O)N1CCC[C@H]1C(=O)N[C@@H](CCC(=O)O)C(=O)N[C@@H](CCC(=O)O)C(=O)N[C@@H](CC(C)C)C(=O)N[C@@H](CCC(N)=O)C(=O)N[C@@H](CCC(=O)O)C(=O)N[C@@H](Cc1ccc(O)cc1)C(=O)N[C@@H](Cc1ccc(O)cc1)C(=O)N[C@H](C(=O)N[C@@H](CO)C(=O)N[C@@H](CC(C)C)C(=O)N[C@@H](CCCNC(=N)N)C(=O)N[C@@H](Cc1c[nH]cn1)C(=O)N[C@@H](Cc1ccc(O)cc1)C(=O)N[C@@H](Cc1ccc(O)cc1)C(=O)N[C@@H](CC(N)=O)C(=O)N[C@@H](Cc1c[nH]c2ccccc12)C(=O)N[C@@H](CC(C)C)C(=O)N[C@H](C(=O)N[C@@H](CCCNC(=N)N)C(=O)N[C@@H](CCC(N)=O)C(=O)N[C@@H](CCCNC(=N)N)C(=O)N[C@@H](Cc1ccc(O)cc1)C(N)=O)[C@@H](C)O)C(C)C
B2: Compound 6 (peptide)
peptide: Isovaleryl-APEK([AEEA-AEEA-γGlu-C18 diacid])PEEEASPEELQRYYVSARHYYNWLTRQRY-NH2
SMILES: CC(C)CC(=O)N[C@@H](C)C(=O)N1CCC[C@H]1C(=O)N[C@@H](CCC(=O)O)C(=O)N[C@@H](CCCCNC(=O)COCCOCCNC(=O)COCCOCCNC(=O)CC[C@H](NC(=O)CCCCCCCCCCCCCCCCC(=O)O)C(=O)O)C(=O)N1CCC[C@H]1C(=O)N[C@@H](CCC(=O)O)C(=O)N[C@@H](CCC(=O)O)C(=O)N[C@@H](CCC(=O)O)C(=O)N[C@@H](C)C(=O)N[C@@H](CO)C(=O)N1CCC[C@H]1C(=O)N[C@@H](CCC(=O)O)C(=O)N[C@@H](CCC(=O)O)C(=O)N[C@@H](CC(C)C)C(=O)N[C@@H](CCC(N)=O)C(=O)N[C@@H](CCCNC(=N)N)C(=O)N[C@@H](Cc1ccc(O)cc1)C(=O)N[C@@H](Cc1ccc(O)cc1)C(=O)N[C@H](C(=O)N[C@@H](CO)C(=O)N[C@@H](C)C(=O)N[C@@H](CCCNC(=N)N)C(=O)N[C@@H](Cc1c[nH]cn1)C(=O)N[C@@H](Cc1ccc(O)cc1)C(=O)N[C@@H](Cc1ccc(O)cc1)C(=O)N[C@@H](CC(N)=O)C(=O)N[C@@H](Cc1c[nH]c2ccccc12)C(=O)N[C@@H](CC(C)C)C(=O)N[C@H](C(=O)N[C@@H](CCCNC(=N)N)C(=O)N[C@@H](CCC(N)=O)C(=O)N[C@@H](CCCNC(=N)N)C(=O)N[C@@H](Cc1ccc(O)cc1)C(N)=O)[C@@H](C)O)C(C)C
B3: Compound 5 (peptide)
peptide: Isovaleryl-APEK([AEEA-AEEA-γGlu-C18 diacid])PEEEVSPEELQRYYVSLRHYYNWLTRQRY-NH2
SMILES: CC(C)CC(=O)N[C@@H](C)C(=O)N1CCC[C@H]1C(=O)N[C@@H](CCC(=O)O)C(=O)N[C@@H](CCCCNC(=O)COCCOCCNC(=O)COCCOCCNC(=O)CC[C@H](NC(=O)CCCCCCCCCCCCCCCCC(=O)O)C(=O)O)C(=O)N1CCC[C@H]1C(=O)N[C@@H](CCC(=O)O)C(=O)N[C@@H](CCC(=O)O)C(=O)N[C@@H](CCC(=O)O)C(=O)N[C@H](C(=O)N[C@@H](CO)C(=O)N1CCC[C@H]1C(=O)N[C@@H](CCC(=O)O)C(=O)N[C@@H](CCC(=O)O)C(=O)N[C@@H](CC(C)C)C(=O)N[C@@H](CCC(N)=O)C(=O)N[C@@H](CCCNC(=N)N)C(=O)N[C@@H](Cc1ccc(O)cc1)C(=O)N[C@@H](Cc1ccc(O)cc1)C(=O)N[C@H](C(=O)N[C@@H](CO)C(=O)N[C@@H](CC(C)C)C(=O)N[C@@H](CCCNC(=N)N)C(=O)N[C@@H](Cc1c[nH]cn1)C(=O)N[C@@H](Cc1ccc(O)cc1)C(=O)N[C@@H](Cc1ccc(O)cc1)C(=O)N[C@@H](CC(N)=O)C(=O)N[C@@H](Cc1c[nH]c2ccccc12)C(=O)N[C@@H](CC(C)C)C(=O)N[C@H](C(=O)N[C@@H](CCCNC(=N)N)C(=O)N[C@@H](CCC(N)=O)C(=O)N[C@@H](CCCNC(=N)N)C(=O)N[C@@H](Cc1ccc(O)cc1)C(N)=O)[C@@H](C)O)C(C)C)C(C)C
B4: Compound 3 (peptide)
peptide: Isovaleryl-APEK([AEEA-AEEA-γGlu-C18 diacid])PEEEASPAELQRYYVSLRHYYNWLTRQRY-NH2
SMILES: CC(C)CC(=O)N[C@@H](C)C(=O)N1CCC[C@H]1C(=O)N[C@@H](CCC(=O)O)C(=O)N[C@@H](CCCCNC(=O)COCCOCCNC(=O)COCCOCCNC(=O)CC[C@H](NC(=O)CCCCCCCCCCCCCCCCC(=O)O)C(=O)O)C(=O)N1CCC[C@H]1C(=O)N[C@@H](CCC(=O)O)C(=O)N[C@@H](CCC(=O)O)C(=O)N[C@@H](CCC(=O)O)C(=O)N[C@@H](C)C(=O)N[C@@H](CO)C(=O)N1CCC[C@H]1C(=O)N[C@@H](C)C(=O)N[C@@H](CCC(=O)O)C(=O)N[C@@H](CC(C)C)C(=O)N[C@@H](CCC(N)=O)C(=O)N[C@@H](CCCNC(=N)N)C(=O)N[C@@H](Cc1ccc(O)cc1)C(=O)N[C@@H](Cc1ccc(O)cc1)C(=O)N[C@H](C(=O)N[C@@H](CO)C(=O)N[C@@H](CC(C)C)C(=O)N[C@@H](CCCNC(=N)N)C(=O)N[C@@H](Cc1c[nH]cn1)C(=O)N[C@@H](Cc1ccc(O)cc1)C(=O)N[C@@H](Cc1ccc(O)cc1)C(=O)N[C@@H](CC(N)=O)C(=O)N[C@@H](Cc1c[nH]c2ccccc12)C(=O)N[C@@H](CC(C)C)C(=O)N[C@H](C(=O)N[C@@H](CCCNC(=N)N)C(=O)N[C@@H](CCC(N)=O)C(=O)N[C@@H](CCCNC(=N)N)C(=O)N[C@@H](Cc1ccc(O)cc1)C(N)=O)[C@@H](C)O)C(C)C
B5: Compound 4 (peptide)
peptide: Isovaleryl-APEK([AEEA-AEEA-γGlu-C18 diacid])PEEDASPEELQRYYVSLRHYYNWLQRQRY-NH2
SMILES: CC(C)CC(=O)N[C@@H](C)C(=O)N1CCC[C@H]1C(=O)N[C@@H](CCC(=O)O)C(=O)N[C@@H](CCCCNC(=O)COCCOCCNC(=O)COCCOCCNC(=O)CC[C@H](NC(=O)CCCCCCCCCCCCCCCCC(=O)O)C(=O)O)C(=O)N1CCC[C@H]1C(=O)N[C@@H](CCC(=O)O)C(=O)N[C@@H](CCC(=O)O)C(=O)N[C@@H](CC(=O)O)C(=O)N[C@@H](C)C(=O)N[C@@H](CO)C(=O)N1CCC[C@H]1C(=O)N[C@@H](CCC(=O)O)C(=O)N[C@@H](CCC(=O)O)C(=O)N[C@@H](CC(C)C)C(=O)N[C@@H](CCC(N)=O)C(=O)N[C@@H](CCCNC(=N)N)C(=O)N[C@@H](Cc1ccc(O)cc1)C(=O)N[C@@H](Cc1ccc(O)cc1)C(=O)N[C@H](C(=O)N[C@@H](CO)C(=O)N[C@@H](CC(C)C)C(=O)N[C@@H](CCCNC(=N)N)C(=O)N[C@@H](Cc1c[nH]cn1)C(=O)N[C@@H](Cc1ccc(O)cc1)C(=O)N[C@@H](Cc1ccc(O)cc1)C(=O)N[C@@H](CC(N)=O)C(=O)N[C@@H](Cc1c[nH]c2ccccc12)C(=O)N[C@@H](CC(C)C)C(=O)N[C@@H](CCC(N)=O)C(=O)N[C@@H](CCCNC(=N)N)C(=O)N[C@@H](CCC(N)=O)C(=O)N[C@@H](CCCNC(=N)N)C(=O)N[C@@H](Cc1ccc(O)cc1)C(N)=O)C(C)C
B6: Compound 7 (peptide)
peptide: Isovaleryl-APEK([AEEA-AEEA-γGlu-C18 diacid])PEEDASPEELQAYYVSLRHYYNWLTRQRY-NH2
SMILES: CC(C)CC(=O)N[C@@H](C)C(=O)N1CCC[C@H]1C(=O)N[C@@H](CCC(=O)O)C(=O)N[C@@H](CCCCNC(=O)COCCOCCNC(=O)COCCOCCNC(=O)CC[C@H](NC(=O)CCCCCCCCCCCCCCCCC(=O)O)C(=O)O)C(=O)N1CCC[C@H]1C(=O)N[C@@H](CCC(=O)O)C(=O)N[C@@H](CCC(=O)O)C(=O)N[C@@H](CC(=O)O)C(=O)N[C@@H](C)C(=O)N[C@@H](CO)C(=O)N1CCC[C@H]1C(=O)N[C@@H](CCC(=O)O)C(=O)N[C@@H](CCC(=O)O)C(=O)N[C@@H](CC(C)C)C(=O)N[C@@H](CCC(N)=O)C(=O)N[C@@H](C)C(=O)N[C@@H](Cc1ccc(O)cc1)C(=O)N[C@@H](Cc1ccc(O)cc1)C(=O)N[C@H](C(=O)N[C@@H](CO)C(=O)N[C@@H](CC(C)C)C(=O)N[C@@H](CCCNC(=N)N)C(=O)N[C@@H](Cc1c[nH]cn1)C(=O)N[C@@H](Cc1ccc(O)cc1)C(=O)N[C@@H](Cc1ccc(O)cc1)C(=O)N[C@@H](CC(N)=O)C(=O)N[C@@H](Cc1c[nH]c2ccccc12)C(=O)N[C@@H](CC(C)C)C(=O)N[C@H](C(=O)N[C@@H](CCCNC(=N)N)C(=O)N[C@@H](CCC(N)=O)C(=O)N[C@@H](CCCNC(=N)N)C(=O)N[C@@H](Cc1ccc(O)cc1)C(N)=O)[C@@H](C)O)C(C)C

This assay deals with T1, human neuropeptide Y2 receptor (human, UniProt P49146 1-381).
T1 construct: whole, on cells; also called hNPY2 receptor; hNPY2-R
T1 sequence (looked up): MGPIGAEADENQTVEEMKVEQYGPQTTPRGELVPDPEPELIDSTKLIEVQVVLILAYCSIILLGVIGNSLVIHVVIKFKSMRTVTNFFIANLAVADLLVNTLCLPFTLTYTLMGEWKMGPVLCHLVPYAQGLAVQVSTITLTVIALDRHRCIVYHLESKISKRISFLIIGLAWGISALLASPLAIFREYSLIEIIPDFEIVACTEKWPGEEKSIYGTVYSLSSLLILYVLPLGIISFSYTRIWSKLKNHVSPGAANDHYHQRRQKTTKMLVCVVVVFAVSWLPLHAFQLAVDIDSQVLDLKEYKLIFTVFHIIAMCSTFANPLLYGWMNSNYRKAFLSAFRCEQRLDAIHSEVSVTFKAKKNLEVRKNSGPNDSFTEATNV
Description: radioligand competition (125I-PYY(1-36)), hNPY2R membranes. Here is the method:
The filtration RLB assay was carried out in 96-well plates in a final volume of 100 μl per well. Freeze-dried test peptides were dissolved in 100% dimethyl sulfoxide (DMSO) to stock solutions of 1 mM and serial dilutions were performed in assay buffer (50 mM HEPES, 5 mM MgCl₂, 1 mM CaCl₂, pH 7.4) containing 0.2% ovalbumin. […] Next, 80 μL membranes (HTS066M, ChemiSCREEN™ Human Neuropeptide Y2 Receptor Membrane Preparation, CHEMICON) were added to each well to give a final protein concentration of 0.5 μg/well. The plates were sealed and incubated at room temperature for 2 hours in a plate shaker set at 400 rpm. The incubation was stopped by vacuum filtration onto 0.5% poly-ethylene amine (PEI) presoaked GF/C filters using a 96-well FilterMate™ harvester (Perkin Elmer) followed by four washes with 300 μl/well ice-cold wash buffer (50 mM HEPES, 500 mM NaCl, pH7.4). Filter plates were then dried for 60 min at room temperature and the bottom of the plates was sealed with backing tape UniFilter-96. Finally, 50 μl/well scintillation counter cocktail (Microscint20, Packard) was added and the radioactivity was counted in the Packard TopCount NXT scintillation counter. IC₅₀ values (the half maximal inhibitory concentration of the agonist) were calculated by nonlinear regression analysis of sigmoidal dose-response curves.
On the technique in general: Loss of bound radioactivity is the signal in a displacement assay; it reports binding, not function.
With B1, affinity was put at a Ki of 2.5 nM.

For the molecule B2, the Ki came to 6.52 nM. The figure for B3 is 14.8 nM; for B4 it is 3.14 nM; for B5 it is 1.43 nM.

B6 displayed an inhibitory constant (Ki) of 1.02 nM. The Ki values of the last two molecules are within 1.5-fold of each other.
